How the values were obtained:
[1] = biological target: Pyrococcus abyssi PolD DP1 subunit, exonuclease-deficient variant H451A, full length (Pyrococcus abyssi) (UniProt Q9V2F3); test: AUC; sedimentation velocity of the copurified PolD complex at 0.2, 0.5 and 1 mg/ml, 42,000 rpm, 20°C; continuous c(s) distribution (Sedfit); sediments at 8 S, frictional ratio 1.4
[2] = biological target: T1, PolD DP1 H451A (exonuclease-deficient small subunit);PolD DP2 (large catalytic subunit) (Pyrococcus abyssi;Pyrococcus abyssi, UniProt Q9V2F3;Q9V2F4;Q9V2F4 1-619;1-954;1140-1455, H451A|); test: fluorescence anisotropy; Fluorescence anisotropy: 20 mM sodium succinate pH 6, 100 mM NaCl, 25 C, 5 nM HEX-DNA, PolD up to 600 nM, DP2(1-1061) up to 6 uM; settings: protein: recombinant;recombinant; tags: N-terminal 14xHis, TEV-cleaved;; copies: 1;1;1; 3'-HEX in assay text; 18 bp duplex, 5' overhang 7 nt on template
T1 sequence (Q9V2F3 whole entry H451A, chain 1 of 3): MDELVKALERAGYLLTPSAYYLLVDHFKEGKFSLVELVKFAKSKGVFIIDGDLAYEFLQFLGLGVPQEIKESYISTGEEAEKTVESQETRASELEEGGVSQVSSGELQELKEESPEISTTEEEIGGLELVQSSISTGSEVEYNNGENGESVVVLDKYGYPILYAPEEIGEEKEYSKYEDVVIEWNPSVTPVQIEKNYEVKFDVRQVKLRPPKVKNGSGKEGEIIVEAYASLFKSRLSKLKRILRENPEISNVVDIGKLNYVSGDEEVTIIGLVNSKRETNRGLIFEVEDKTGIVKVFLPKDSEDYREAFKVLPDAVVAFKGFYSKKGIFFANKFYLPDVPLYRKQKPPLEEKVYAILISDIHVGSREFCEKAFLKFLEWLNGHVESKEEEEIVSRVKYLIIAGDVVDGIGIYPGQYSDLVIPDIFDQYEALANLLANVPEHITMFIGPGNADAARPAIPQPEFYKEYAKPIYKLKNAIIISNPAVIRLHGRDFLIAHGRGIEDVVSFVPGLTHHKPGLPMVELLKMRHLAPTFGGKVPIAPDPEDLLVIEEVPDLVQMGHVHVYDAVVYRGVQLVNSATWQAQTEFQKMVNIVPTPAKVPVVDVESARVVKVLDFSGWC
T1 sequence (Q9V2F4 1-954, chain 2 of 3): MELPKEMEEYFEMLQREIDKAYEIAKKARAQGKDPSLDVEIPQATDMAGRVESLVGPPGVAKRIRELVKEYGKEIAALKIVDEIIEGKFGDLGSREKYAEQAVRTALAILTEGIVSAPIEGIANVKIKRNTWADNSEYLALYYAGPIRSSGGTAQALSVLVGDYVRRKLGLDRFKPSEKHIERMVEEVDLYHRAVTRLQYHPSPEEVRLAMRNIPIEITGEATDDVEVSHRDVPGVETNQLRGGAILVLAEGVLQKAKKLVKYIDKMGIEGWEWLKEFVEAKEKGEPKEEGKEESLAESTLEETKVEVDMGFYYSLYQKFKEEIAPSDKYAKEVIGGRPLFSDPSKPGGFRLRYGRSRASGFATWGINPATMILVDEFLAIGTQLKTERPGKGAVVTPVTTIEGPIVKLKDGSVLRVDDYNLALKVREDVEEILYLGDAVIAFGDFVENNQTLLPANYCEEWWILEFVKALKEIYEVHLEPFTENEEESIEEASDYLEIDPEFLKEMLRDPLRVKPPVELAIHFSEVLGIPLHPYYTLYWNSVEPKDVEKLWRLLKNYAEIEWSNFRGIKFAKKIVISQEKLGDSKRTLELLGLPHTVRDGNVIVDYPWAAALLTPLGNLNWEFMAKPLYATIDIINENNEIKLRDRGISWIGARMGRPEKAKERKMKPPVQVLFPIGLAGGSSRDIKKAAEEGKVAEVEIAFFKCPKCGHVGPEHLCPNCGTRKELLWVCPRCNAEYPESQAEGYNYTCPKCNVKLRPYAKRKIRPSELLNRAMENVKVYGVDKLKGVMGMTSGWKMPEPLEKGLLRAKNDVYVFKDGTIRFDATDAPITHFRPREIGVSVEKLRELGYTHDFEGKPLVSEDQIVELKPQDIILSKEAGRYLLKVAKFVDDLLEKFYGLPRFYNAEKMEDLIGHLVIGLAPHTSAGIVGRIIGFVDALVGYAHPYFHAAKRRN
T1 sequence (Q9V2F4 1140-1455, chain 3 of 3): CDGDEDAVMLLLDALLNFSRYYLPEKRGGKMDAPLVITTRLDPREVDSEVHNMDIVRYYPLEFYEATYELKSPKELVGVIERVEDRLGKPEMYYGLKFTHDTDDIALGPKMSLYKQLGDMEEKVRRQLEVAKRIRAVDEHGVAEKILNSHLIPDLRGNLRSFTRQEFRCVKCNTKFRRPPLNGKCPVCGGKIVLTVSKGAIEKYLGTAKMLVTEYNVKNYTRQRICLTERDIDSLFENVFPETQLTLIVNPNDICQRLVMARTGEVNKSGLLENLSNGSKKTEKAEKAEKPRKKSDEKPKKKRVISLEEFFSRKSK

[3] = biological target: T1, PolD DP1 H451A (exonuclease-deficient …); test: as above; settings: protein: recombinant;recombinant; tags: N-terminal 14xHis, TEV-cleaved;; copies: 1;1;1; 3'-HEX in assay text; blunt, 25 bp
[4] = biological target: T1, PolD DP1 H451A (exonuclease-deficient …); test: cryo-EM structure; Zn2+ and Fe3+ in protein; no nucleotide; Fluorescence anisotropy: 20 mM sodium succinate pH 6, 100 mM NaCl, 25 C, 5 nM HEX-DNA, PolD up to 600 nM, DP2(1-1061) up to 6 uM; settings: protein: recombinant;recombinant; tags: N-terminal 14xHis, TEV-cleaved;; copies: 1;1;1; 15 bp duplex, 5' overhang 5 nt on template

Sequence of Pyrococcus abyssi PolD DP1 subunit, exonuclease-deficient variant H451A, full length (Pyrococcus abyssi) (Q9V2F3 whole entry H451A): as the sequence (Q9V2F3 whole entry H451A, chain 1 of 3) above

Molecule: Pyrococcus abyssi PolD DP2 subunit, full length (from UniProt Q9V2F4 1-1455) (enzyme)
- stoichiometry N [1]: 1

B1: HEX primer/template (dsDNA)
DNA 1: CGCCGGGCCGAGCCGTGC
DNA 2: AGGTCGTGCACGGCTCGGCCCGGCG
- Kd [2]: 15 nM

B2: HEX dsDNA (dsDNA)
DNA 1: CGCCGGGCCGAGCCGTGCACGACCT
DNA 2: AGGTCGTGCACGGCTCGGCCCGGCG
- binding signal [3]: 6.5 fold weaker Kd than primer-template

B3: cryo-EM primer/template (dsDNA)
DNA 1: GAGACGGGCCGCGTC
DNA 2: ACTTTGACGCGGCCCGTCTC
- binding result [4]: binds

— publication PMC6355029, “Structure of the DP1–DP2 PolD complex bound with DNA and its implications for the evolutionary history of DNA and RNA polymerases”
